In CN117425675A (XINSHI BIOPHARMACEUTICAL CO LTD, dated 2024):
Substitutions are numbered along the chain they refer to. In names and notes the source's numbering stands.

B1: R2_mAb-1 (antibody, V domains shown)
VH: QVQLVESGGGVVQPGRSLRLSCAASGFTFSSYGMHWVRQAPGKGLEWVAVIWFDEDNKDYADSVKGRFTISRDNSKNTLYLQMSSLRAEDTAVYYCARDNDILTGYYYYYGMDVWGQGTTVTVSS
VL: DIQLTQSPSFLSASVGDRVTITCRASQDISSYLAWYQQKPGKAPKLLIYAASTLQSGVPSRFSGSGSGTEFTLTISSLQPEDFATYYCQQLNSYPPTFGQGTKVEIK
notes: The VH/VL pair is read from parallel lists; also called R2-1
B2: R2_mAb-4 (antibody, V domains shown)
VH: QVQLVQSGAEVRKPGASVKVSCKASGYTFTSYSVTWVRQAPGQGLEWMGWINAFSGNTHYAQNLQDRVTMTTDTSTSTAYMELRSLRSDDTAVYYCAREEGSGSYEDYYGMDVWGQGTTVTVSS
VL: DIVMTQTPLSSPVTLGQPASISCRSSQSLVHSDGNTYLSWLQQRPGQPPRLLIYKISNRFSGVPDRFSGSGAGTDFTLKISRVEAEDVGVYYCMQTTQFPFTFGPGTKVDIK
notes: The mouse IgG2a chimera was used only in the tumour models; also called R2-4
B3: R2_mAb-2 (antibody, V domains shown)
VH: QVQLVQSGPEVKKPGASVKVSCKASGYTFTNYGISWVRQAPGQGLEWMGWINAYNGNTNYAQKLQGRVTMTTDTSTSTAYMELRSLRSDDTAVYYCARDGGYGSGTYHNDYYYYYGMDVWGQGTTVTVSS
VL: EIVLTQSPDFQSMTPEEKVTITCRASQSIGSNLHWYQQKPDQSPKLLIKFASQSISGVPSRFSGSGSGTDFTLTINSLEAEDAATYYCHQSSSLPFTFGPGTKVDIK
notes: also called R2-2
B4: R2_mAb-5 (antibody, V domains shown)
VH: QVQLVQSGAEVKKPGASVTVSCKASGYTFSTYGIIWVRQAPGQGLEWMGWISAFNGNANSAQKLQDRVTMTTDTSTSTAYMELRSLRSDDTAVYYCARGEDFFDYWGQGTLVTVSS
VL: DIVMTQTPLSSPVTLGQPASISCRSSQSLVHSDGNTYLSWLQQRPGQPPRLLIYKVSSRFSGVPDRFSGSGAGTDFTLKISRVEAEDVGVYYCTQSTQFPFTFGRGTKLEIK
notes: The mouse IgG2a, IgG1 and IgG1 D265A chimeras were used only in the tumour models; also called R2-5
B5: R2_mAb-6 (antibody, V domains shown)
VH: QVQLVQSGAEVKKPGASVKVSCKASGYTFLSYGLSWVRQAPGQGLEWMGWINAYNGNTNYAQNLQDRVTMTTDTSTSTAYMELRSLRSDDMAVYYCARWDILTAYYSSDAFDIWGQGTMVTVSS
VL: B4 VL with S39N, S58N, S96T, F101I, R105Q, K108R
notes: also called R2-6
B6: R2_mAb-3 (antibody, V domains shown)
VH: QVQLQESGPGLVKPSETLSLTCTVSGGSISSYYWSWIRQAPGKGLEWIGYIYYSGSTNYNPSLKSRVTISVDTSKNQFSLKLSSVTAADTAVYYCARDDGSSDYGMDVWGQGTTVTVSS
VL: AIQLTQSPSSLSASVGDRVTITCRASQGISSALAWYQQKPGKAPKLLIYDASSLESGVPSRFTGSGTDFTLTISSLQPEDFATYYCQQFNNYMYTFGQGTKLEIK
notes: also called R2-3

Target: T1, human TNFR1 stably overexpressed on CHO-K1 cells (human (Homo sapiens), UniProt P19438 30-455)
T1 construct: also called 人TNFR1; TNFRSF1A
T1 sequence: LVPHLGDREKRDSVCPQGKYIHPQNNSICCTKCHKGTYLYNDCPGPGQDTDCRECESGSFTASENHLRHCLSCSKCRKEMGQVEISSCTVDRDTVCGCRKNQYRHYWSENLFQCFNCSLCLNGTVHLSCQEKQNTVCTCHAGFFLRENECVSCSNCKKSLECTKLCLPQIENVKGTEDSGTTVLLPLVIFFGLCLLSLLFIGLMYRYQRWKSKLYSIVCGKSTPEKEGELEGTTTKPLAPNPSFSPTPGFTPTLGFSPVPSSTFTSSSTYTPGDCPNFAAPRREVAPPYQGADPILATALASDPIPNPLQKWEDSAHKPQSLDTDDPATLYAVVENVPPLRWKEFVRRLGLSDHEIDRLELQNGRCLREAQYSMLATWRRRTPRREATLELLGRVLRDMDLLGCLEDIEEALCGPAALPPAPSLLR
Test: flow cytometry on CHO-K1 cells stably overexpressing human TNFR1

Binder | binding result
B1 | no binding (tested: 10μg/mL)
B2 | no binding (tested: 10μg/mL)
B3 | no binding (tested: 10μg/mL)
B4 | no binding (tested: 10μg/mL)
B5 | no binding (tested: 10μg/mL)
B6 | no binding (tested: 10μg/mL)

Target: T2, human TNFR2 expressed on cells (stably overexpressed on HEK293T, CHO-K1 or Jurkat cells; endogenous on THP1) (human (Homo sapiens), UniProt P20333 23-461)
T2 construct: also called 人TNFR2; hTNFR2
T2 sequence: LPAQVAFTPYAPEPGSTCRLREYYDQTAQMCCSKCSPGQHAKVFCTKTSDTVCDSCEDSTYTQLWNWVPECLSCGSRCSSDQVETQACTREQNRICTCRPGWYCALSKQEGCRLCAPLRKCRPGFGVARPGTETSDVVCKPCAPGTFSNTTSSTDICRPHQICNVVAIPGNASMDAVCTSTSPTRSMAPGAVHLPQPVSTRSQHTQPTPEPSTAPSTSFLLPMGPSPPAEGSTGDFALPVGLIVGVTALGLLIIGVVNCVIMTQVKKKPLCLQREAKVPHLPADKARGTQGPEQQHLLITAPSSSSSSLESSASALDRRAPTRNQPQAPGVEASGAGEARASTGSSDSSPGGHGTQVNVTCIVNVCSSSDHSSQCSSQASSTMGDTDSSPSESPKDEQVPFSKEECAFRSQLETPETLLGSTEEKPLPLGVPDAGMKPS
Test: binding to cells stably overexpressing human TNFR2 (flow cytometry / imaging; text says HEK293T, table title says CHO-K1)

Binder | EC50
B1 | 100 pM
B2 | 110 pM
B3 | 350 pM
B4 | 100 pM
B5 | 140 pM
B6 | 380 pM

Target: T3, mouse TNFR2 stably overexpressed on HEK293T cells (mouse (Mus musculus), UniProt P25119 23-474)
T3 construct: also called 鼠TNFR2
T3 sequence: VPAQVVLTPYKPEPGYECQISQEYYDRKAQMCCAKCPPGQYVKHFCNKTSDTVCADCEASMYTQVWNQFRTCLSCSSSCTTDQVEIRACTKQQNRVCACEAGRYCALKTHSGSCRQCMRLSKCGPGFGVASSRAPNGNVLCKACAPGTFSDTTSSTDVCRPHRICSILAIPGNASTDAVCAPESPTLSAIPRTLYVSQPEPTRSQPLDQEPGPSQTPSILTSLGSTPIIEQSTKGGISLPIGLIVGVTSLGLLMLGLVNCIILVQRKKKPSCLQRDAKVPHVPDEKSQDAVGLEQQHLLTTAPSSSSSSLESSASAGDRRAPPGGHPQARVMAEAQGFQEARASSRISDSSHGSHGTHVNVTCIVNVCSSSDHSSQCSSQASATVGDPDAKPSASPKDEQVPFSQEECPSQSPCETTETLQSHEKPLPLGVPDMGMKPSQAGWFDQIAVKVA
Test: flow cytometry on HEK293T cells stably overexpressing mouse TNFR2

Binder | binding result
B1 | no binding (tested: 10μg/mL)
B2 | no binding (tested: 10μg/mL)
B3 | no binding (tested: 10μg/mL)
B4 | no binding (tested: 10μg/mL)
B5 | no binding (tested: 10μg/mL)
B6 | no binding (tested: 10μg/mL)
